Data published in patent US20180346932A1.

Target: dCas9-GCN4 fusion protein of System 3 (dCas9 with 5 copies of GCN4 peptides, linker of 22 amino acids) (S. pyogenes) (UniProt Q99ZW2)
Assay: cell-based or functional assay

Chain of GCN4 peptide antibody (scFv)-superfolder green fluorescent protein (sfGFP)-TET1CD fusion protein (Q8NFU7 1418-2136): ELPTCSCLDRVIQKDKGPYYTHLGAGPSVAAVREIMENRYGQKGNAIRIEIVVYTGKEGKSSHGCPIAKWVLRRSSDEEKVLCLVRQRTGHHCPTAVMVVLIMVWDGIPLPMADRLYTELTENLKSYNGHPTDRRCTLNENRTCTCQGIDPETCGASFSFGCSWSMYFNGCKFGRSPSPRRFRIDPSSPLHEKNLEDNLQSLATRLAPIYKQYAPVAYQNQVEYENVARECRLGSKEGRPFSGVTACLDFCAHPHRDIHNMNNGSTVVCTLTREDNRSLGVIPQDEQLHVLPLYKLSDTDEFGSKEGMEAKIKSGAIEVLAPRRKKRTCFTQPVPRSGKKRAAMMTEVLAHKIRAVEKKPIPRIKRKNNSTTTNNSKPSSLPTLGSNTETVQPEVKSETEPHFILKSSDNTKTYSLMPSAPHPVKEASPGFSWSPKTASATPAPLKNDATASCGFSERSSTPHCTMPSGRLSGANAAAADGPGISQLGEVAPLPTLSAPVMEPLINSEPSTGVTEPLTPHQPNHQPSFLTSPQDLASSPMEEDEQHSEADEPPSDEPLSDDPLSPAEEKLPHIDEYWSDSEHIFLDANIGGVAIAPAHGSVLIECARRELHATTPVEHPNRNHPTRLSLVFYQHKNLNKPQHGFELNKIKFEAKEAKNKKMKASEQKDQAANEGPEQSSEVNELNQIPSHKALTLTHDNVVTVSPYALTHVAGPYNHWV

demethylation of the Gfap STAT3 site in ESCs (COBRA, standardized demethylation percentage): 43%
Substance: GCN4 peptide antibody (scFv)-superfolder green fluorescent protein (sfGFP)-TET1CD fusion protein (from UniProt Q8NFU7 1418-2136)
